Measured values: patent US10774129B2, “Complexes of types of MHC class II that bind to collagen type II peptides and their use on diagnosis and treatment” (FRAUNHOFER-GESELLSCHAFT ZUR FÖRDERUNG DER ANGEWANDTEN …, priority 2011, dated 2020)
Square brackets hold non-standard residues; d marks the D form. Ends that are not written are not given here. Cit = NC(=O)NCCC[C@H](N)C(=O)O

How the values were obtained:
Experiment in all cases: in vitro binding assay to recombinant MHC class II protein
[1] = target: MHC class II of the HLA DRB1 0101 genotype (Homo sapiens, UniProt P01903+P01911, A100R/D57E/F55L/F60I/F76Y/I96L/L162R/M171V/P40L/Q125E/R42F/V115G/Y59C); parameters: key: *0101: the listing of the allele in the column for the allele indicates binding; *0401: “0401” in the “Binds to 0401” column indicates binding of the peptide to MHC class II of the HLA DRB1 0401 genotype; *0404: the listing of the allele in the column for the allele indicates binding; *0405: the listing of the allele in the column for the allele indicates binding; *0408: the listing of the allele in the column for the allele indicates binding; *1001: the listing of the allele in the column for the allele indicates binding; “no” or no data indicates no binding to a protein of that genotype
From the text: (§1) Binding of the peptides to recombinant MHC class II protein of various alleles has been confirmed in an in vitro binding assay and the results are shown in Tables 1, 2 and 3. In table 1, 2 and 3, the listing of the allele in the column for the allele indicates binding. Thus “0401” in the “Binds to 0401” column indicates binding of the peptide to MHC class II of the HLA DRB1 0401 genotype. “no” or no data indicates no binding to a protein of that genotype. Empty boxes indicate no binding or that binding has not been determined. In the tables it is also indicated if the peptide has a citrulline residue, where “yes” indicates the presence of a citrulline residue and “no” indicates the absence of a citrulline residue.

[2] = target: MHC class II of the HLA DRB1 0404 genotype (Homo sapiens, UniProt P01903+P01911, A100R/A169T/F76Y/I96L/K127E/L162R/M171V/N62H/P40V/Q125Y/R42H/S133A/S149N/S66Y/V209L/W38E); parameters: key: *0101: the listing of the allele in the column for the allele indicates binding; *0401: “0401” in the “Binds to 0401” column indicates binding of the peptide to MHC class II of the HLA DRB1 0401 genotype; *0404: the listing of the allele in the column for the allele indicates binding; *0405: the listing of the allele in the column for the allele indicates binding; *0408: the listing of the allele in the column for the allele indicates binding; *1001: the listing of the allele in the column for the allele indicates binding; “no” or no data indicates no binding to a protein of that genotype
From the text: as §1

[3] = target: MHC class II of the HLA DRB1 0405 genotype (Homo sapiens, UniProt P01903+P01911, A100R/A169T/D86S/F76Y/I96L/K127E/L162R/M171V/N62H/P40V/Q125Y/R42H/S133A/S149N/S66Y/V115G/V209L/W38E); parameters: key: *0101: the listing of the allele in the column for the allele indicates binding; *0401: “0401” in the “Binds to 0401” column indicates binding of the peptide to MHC class II of the HLA DRB1 0401 genotype; *0404: the listing of the allele in the column for the allele indicates binding; *0405: the listing of the allele in the column for the allele indicates binding; *0408: the listing of the allele in the column for the allele indicates binding; *1001: the listing of the allele in the column for the allele indicates binding; “no” or no data indicates no binding to a protein of that genotype
From the text: as §1

[4] = target: MHC class II of the HLA DRB1 0401 genotype (Homo sapiens, UniProt P01903+P01911, A100K/A169T/F76Y/I96L/K127E/L162R/M171V/N62H/P40V/Q125Y/R42H/S133A/S149N/S66Y/V115G/V209L/W38E); parameters: key to Binds to 0401: *0101: the listing of the allele in the column for the allele indicates binding; *0401: “0401” in the “Binds to 0401” column indicates binding of the peptide to MHC class II of the HLA DRB1 0401 genotype; *0404: the listing of the allele in the column for the allele indicates binding; *0405: the listing of the allele in the column for the allele indicates binding; *0408: the listing of the allele in the column for the allele indicates binding; *1001: the listing of the allele in the column for the allele indicates binding; “no” or no data indicates no binding to a protein of that genotype; conditions: recombinant MHC class II, HLA DRB1 0401
From the text: as §1
Thus for these peptides no binding to HLA-DR0401 was observed when citrulline was exchanged with the original amino acid arginine (Table 4). No binding of the citrullinated peptides was seen to HLA-DR 03 or 02 variants.

[5] = test system: MHC class II of the HLA DRB1 0408 genotype; parameters: species or system human; key: *0101: the listing of the allele in the column for the allele indicates binding; *0401: “0401” in the “Binds to 0401” column indicates binding of the peptide to MHC class II of the HLA DRB1 0401 genotype; *0404: the listing of the allele in the column for the allele indicates binding; *0405: the listing of the allele in the column for the allele indicates binding; *0408: the listing of the allele in the column for the allele indicates binding; *1001: the listing of the allele in the column for the allele indicates binding; “no” or no data indicates no binding to a protein of that genotype
From the text: as §1

[6] = test system: MHC class II of the HLA DRB1 1001 genotype; parameters: species or system human; key to Binds to 1001: *0101: the listing of the allele in the column for the allele indicates binding; *0401: “0401” in the “Binds to 0401” column indicates binding of the peptide to MHC class II of the HLA DRB1 0401 genotype; *0404: the listing of the allele in the column for the allele indicates binding; *0405: the listing of the allele in the column for the allele indicates binding; *0408: the listing of the allele in the column for the allele indicates binding; *1001: the listing of the allele in the column for the allele indicates binding; “no” or no data indicates no binding to a protein of that genotype; conditions: recombinant MHC class II, HLA DRB1 1001
From the text: as §1

Row | Substance | Binds to 0101 [1] | Binds to 0404 [2] | Binds to 0405 [3] | Binds to 0401 [4] | Binds to 0408 [5] | Binds to 1001 [6]
1 | vimentin 81: human vimentin peptide, not citrullinated (RKLLEGEESRISLPL; listed as Homo sapiens) | no | no | no | *0401 | – | –
2 | a-enolase 15: human alpha-enolase peptide, not citrullinated (KTIAPALVSKKLNVT; listed as Homo sapiens) | *0101 | *0404 | no | no | *0408 | no
3 | type II collagen 263: human collagen type II peptide, not citrullinated (GDRGEAGAQGPMGPS; listed as Homo sapiens) | – | – | – | – | – | *1001
4 | vimentin 106: citrullinated human vimentin peptide (SAV[Cit]L[Cit]SSVPGV[Cit]LL; listed as Homo sapiens) | *0101 | *0404 | *0405 | *0401 | – | –
5 | vimentin 117: citrullinated human vimentin peptide (LLAELEQLKGQGKS[Cit]; listed as Homo sapiens) | *0101 | No | no | – | – | –
6 | vimentin 64: human vimentin peptide, not citrullinated (STEYRRQVQSLTCEV; listed as Homo sapiens) | *0101 | – | *0405 | *0401 | – | –
7 | vimentin 104: citrullinated human vimentin peptide (SPGGVYAT[Cit]SSAV[Cit]L; listed as Homo sapiens) | *0101 | *0404 | no | *0401 | – | –
8 | vimentin 166: citrullinated human vimentin peptide (THSK[Cit]TLLIKTVET[Cit]; listed as Homo sapiens) | no | *0404 | no | no | – | –
9 | vimentin 133: citrullinated human vimentin peptide (DNASLA[Cit]LDLE[Cit]KVE; listed as Homo sapiens) | no | No | no | *0401 | – | –
10 | vimentin 105: citrullinated human vimentin peptide (YAT[Cit]SSAV[Cit]L[Cit]SSVP; listed as Homo sapiens) | *0101 | no | no | *0401 | – | –
11 | type II collagen 362: citrullinated human collagen type II peptide (PKGANGDPG[Cit]PGEPG; listed as Homo sapiens) | – | – | – | – | – | *1001
12 | type II collagen 411: citrullinated human collagen type II peptide (GIVGLPGQ[Cit]GE[Cit]GFP; listed as Homo sapiens) | – | *0404 | *0405 | *0401 | – | –
13 | vimentin 108: citrullinated human vimentin peptide (GVXLLQDSVDFSLAD; citrullinated; MOD_RES (3)..(3) Citrulline; listed as Homo sapiens) | no | no | no | *0401 | – | –
14 | type II collagen 332: citrullinated human collagen type II peptide ([Cit]GPPGPQGA[Cit]GFPGT; listed as Homo sapiens) | – | *0404 | *0405 | *0401 | – | –

The remaining lines, values ahead:

Row | Binds to 0101 [1] | Binds to 0404 [2] | Binds to 0405 [3] | Binds to 0401 [4] | Binds to 0408 [5] | Binds to 1001 [6] | Substance
15 | no | – | no | *0401 | – | – | vimentin 34: human vimentin peptide, not citrullinated (NDKARVEVERDNLAE; listed as Homo sapiens)
16 | *0101 | *0404 | *0405 | *0401 | – | – | vimentin 3: human vimentin peptide, not citrullinated (YRRMFGGPGTASRPS; listed as Homo sapiens)
17 | *0101 | *0404 | *0405 | *0401 | – | – | type II collagen 242: human collagen type II peptide, not citrullinated (GIVGLPGQRGERGFP; listed as Homo sapiens)
18 | *0101 | No | no | *0401 | – | – | vimentin 111: citrullinated human vimentin peptide (FKNT[Cit]TNEKVELQEL; listed as Homo sapiens)
19 | *0101 | *0404 | no | *0401 | – | – | vimentin 1: human vimentin peptide, not citrullinated (MSTRSVSSSSYRRMF; listed as Homo sapiens)
20 | – | – | – | – | *0408 | *1001 | type II collagen 384: citrullinated human collagen type II peptide (QGP[Cit]GLPGTPGTDGP; listed as Homo sapiens)
21 | *0101 | – | *0405 | – | – | – | vimentin 77: human vimentin peptide, not citrullinated (REYQDLLNVKMALDI; listed as Homo sapiens)
22 | – | – | – | – | – | *1001 | type II collagen 268: human collagen type II peptide, not citrullinated (PQGPRGDKGEAGEPG; listed as Homo sapiens)
23 | no | *0404 | no | *0401 | – | – | vimentin 33: human vimentin peptide, not citrullinated (VDQLTNDKARVEVER; listed as Homo sapiens)
